Laboratory results taken from paper PMC3548793, “CK2 Phosphorylates Sec31 and Regulates ER-To-Golgi Trafficking” (PLoS ONE, 2013).

Biological target: T1, GFP-tagged Sec23 (UniProt Q15436 1-765)
T1 construct: Sec23a; plasmid YFP-Sec23a was a gift; The results and legends call it GFP-tagged Sec23; the only Sec23 plasmid named in the methods is YFP-Sec23a; also called GFP-Sec23; YFP-Sec23a; source: HEK293, transfected, in lysate
Test: co-IP; HEK293 cells co-transfected with FLAG-tagged Sec31 (WT or mutants) and GFP-tagged Sec23 or GFP-Sec13; GFP-tagged protein immunoprecipitated with anti-GFP beads, blot with anti-FLAG; 10 mM HEPES-KOH pH 7.4, 100 mM KCl, 0.1 mM DTT, 2.5 mM MgCl2, 1% Triton X-100, 30 min at 4°C; in Figure 6 cells transfected two days before with or without siRNA1 to CK2 alpha1
Details: partners not purified

T1 sequence (Q15436 whole entry): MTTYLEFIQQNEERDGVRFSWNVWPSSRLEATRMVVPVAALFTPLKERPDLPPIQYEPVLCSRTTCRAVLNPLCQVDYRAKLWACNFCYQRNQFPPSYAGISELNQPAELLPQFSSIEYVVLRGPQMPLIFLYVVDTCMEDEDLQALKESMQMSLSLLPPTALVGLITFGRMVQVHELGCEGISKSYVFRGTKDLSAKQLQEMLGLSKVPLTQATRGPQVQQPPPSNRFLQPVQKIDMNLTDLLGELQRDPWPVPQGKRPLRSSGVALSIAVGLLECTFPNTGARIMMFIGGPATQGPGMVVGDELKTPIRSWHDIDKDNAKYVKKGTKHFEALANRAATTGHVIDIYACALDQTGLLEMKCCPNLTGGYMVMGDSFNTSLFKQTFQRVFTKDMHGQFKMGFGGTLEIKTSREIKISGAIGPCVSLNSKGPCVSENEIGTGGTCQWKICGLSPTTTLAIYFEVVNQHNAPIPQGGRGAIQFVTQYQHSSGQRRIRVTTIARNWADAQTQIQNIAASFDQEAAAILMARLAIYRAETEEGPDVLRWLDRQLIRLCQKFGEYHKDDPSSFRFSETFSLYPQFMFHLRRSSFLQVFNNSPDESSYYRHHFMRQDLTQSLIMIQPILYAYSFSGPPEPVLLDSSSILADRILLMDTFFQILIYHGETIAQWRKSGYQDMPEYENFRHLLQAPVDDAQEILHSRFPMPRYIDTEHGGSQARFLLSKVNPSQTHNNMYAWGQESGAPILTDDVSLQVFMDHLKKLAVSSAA

B1: FLAG-tagged wild type (WT) Sec31 (natural protein, human, UniProt O94979 1-1220, looked up)
chain: MKLKEVDRTAMQAWSPAQNHPIYLATGTSAQQLDATFSTNASLEIFELDLSDPSLDMKSCATFSSSHRYHKLIWGPYKMDSKGDVSGVLIAGGENGNIILYDPSKIIAGDKEVVIAQNDKHTGPVRALDVNIFQTNLVASGANESEIYIWDLNNFATPMTPGAKTQPPEDISCIAWNRQVQHILASASPSGRATVWDLRKNEPIIKVSDHSNRMHCSGLAWHPDVATQMVLASEDDRLPVIQMWDLRFASSPLRVLENHARGILAIAWSMADPELLLSCGKDAKILCSNPNTGEVLYELPTNTQWCFDIQWCPRNPAVLSAASFDGRISVYSIMGGSTDGLRQKQVDKLSSSFGNLDPFGTGQPLPPLQIPQQTAQHSIVLPLKKPPKWIRRPVGASFSFGGKLVTFENVRMPSHQGAEQQQQQHHVFISQVVTEKEFLSRSDQLQQAVQSQGFINYCQKKIDASQTEFEKNVWSFLKVNFEDDSRGKYLELLGYRKEDLGKKIALALNKVDGANVALKDSDQVAQSDGEESPAAEEQLLGEHIKEEKEESEFLPSSGGTFNISVSGDIDGLITQALLTGNFESAVDLCLHDNRMADAIILAIAGGQELLARTQKKYFAKSQSKITRLITAVVMKNWKEIVESCDLKNWREALAAVLTYAKPDEFSALCDLLGTRLENEGDSLLQTQACLCYICAGNVEKLVACWTKAQDGSHPLSLQDLIEKVVILRKAVQLTQAMDTSTVGVLLAAKMSQYANLLAAQGSIAAALAFLPDNTNQPNIMQLRDRLCRAQGEPVAGHESPKIPYEKQQLPKGRPGPVAGHHQMPRVQTQQYYPHGENPPPPGFIMHGNVNPNAAGQLPTSPGHMHTQVPPYPQPQPYQPAQPYPFGTGGSAMYRPQQPVAPPTSNAYPNTPYISSASSYTGQSQLYAAQHQASSPTSSPATSFPPPPSSGASFQHGGPGAPPSSSAYALPPGTTGTLPAASELPASQRTGPQNGWNDPPALNRVPKKKKMPENFMPPVPITSPIMNPLGDPQSQMLQQQPSAPVPLSSQSSFPQPHLPGGQPFHGVQQPLGQTGMPPSFSKPNIEGAPGAPIGNTFQHVQSLPTKKITKKPIPDEHLILKTTFEDLIQRCLSSATDPQTKRKLDDASKRLEFLYDKLREQTLSPTITSGLHNIARSIETRNYSEGLTMHTHIVSTSNFSETSAFMPVLKVVLTQANKLGV
notes: Sec31a, human, cDNA clone KIAA 0905 from Kazusa DNA Research Institute, subcloned into p3×FLAG-CMV; In the cells partly phosphorylated (S527, S799, S1163, T1165 found by mass spectrometry on endogenous Sec31); also called FLAG-Sec31; human Sec31a; source: HEK293, transfected, in lysate
fold change of Sec31 co-precipitated with Sec23, CK2 depleted by siRNA1 against not depleted: ~3 fold

B2: FLAG-tagged Sec31 S527A/S799A (natural protein, human, UniProt O94979 1-1220, looked up)
chain: MKLKEVDRTAMQAWSPAQNHPIYLATGTSAQQLDATFSTNASLEIFELDLSDPSLDMKSCATFSSSHRYHKLIWGPYKMDSKGDVSGVLIAGGENGNIILYDPSKIIAGDKEVVIAQNDKHTGPVRALDVNIFQTNLVASGANESEIYIWDLNNFATPMTPGAKTQPPEDISCIAWNRQVQHILASASPSGRATVWDLRKNEPIIKVSDHSNRMHCSGLAWHPDVATQMVLASEDDRLPVIQMWDLRFASSPLRVLENHARGILAIAWSMADPELLLSCGKDAKILCSNPNTGEVLYELPTNTQWCFDIQWCPRNPAVLSAASFDGRISVYSIMGGSTDGLRQKQVDKLSSSFGNLDPFGTGQPLPPLQIPQQTAQHSIVLPLKKPPKWIRRPVGASFSFGGKLVTFENVRMPSHQGAEQQQQQHHVFISQVVTEKEFLSRSDQLQQAVQSQGFINYCQKKIDASQTEFEKNVWSFLKVNFEDDSRGKYLELLGYRKEDLGKKIALALNKVDGANVALKDSDQVAQADGEESPAAEEQLLGEHIKEEKEESEFLPSSGGTFNISVSGDIDGLITQALLTGNFESAVDLCLHDNRMADAIILAIAGGQELLARTQKKYFAKSQSKITRLITAVVMKNWKEIVESCDLKNWREALAAVLTYAKPDEFSALCDLLGTRLENEGDSLLQTQACLCYICAGNVEKLVACWTKAQDGSHPLSLQDLIEKVVILRKAVQLTQAMDTSTVGVLLAAKMSQYANLLAAQGSIAAALAFLPDNTNQPNIMQLRDRLCRAQGEPVAGHEAPKIPYEKQQLPKGRPGPVAGHHQMPRVQTQQYYPHGENPPPPGFIMHGNVNPNAAGQLPTSPGHMHTQVPPYPQPQPYQPAQPYPFGTGGSAMYRPQQPVAPPTSNAYPNTPYISSASSYTGQSQLYAAQHQASSPTSSPATSFPPPPSSGASFQHGGPGAPPSSSAYALPPGTTGTLPAASELPASQRTGPQNGWNDPPALNRVPKKKKMPENFMPPVPITSPIMNPLGDPQSQMLQQQPSAPVPLSSQSSFPQPHLPGGQPFHGVQQPLGQTGMPPSFSKPNIEGAPGAPIGNTFQHVQSLPTKKITKKPIPDEHLILKTTFEDLIQRCLSSATDPQTKRKLDDASKRLEFLYDKLREQTLSPTITSGLHNIARSIETRNYSEGLTMHTHIVSTSNFSETSAFMPVLKVVLTQANKLGV
notes: Sec31a, human, cDNA clone KIAA 0905, point mutations by QuikChange; also called S527/S799; source: HEK293, transfected, in lysate
fold change of Sec31 co-precipitated with Sec23 against wild type: 3 fold
